Assay [1] concerns the target G2-Rituximab (galactosylated afucosylated glycoform of rituximab) (human). The assay is described as follows: SPR, 256 to 8 nM in 2-fold steps.
Assay [2] deals with G2F-Rituximab (galactosylated fucosylated glycoform of rituximab) (human). The assay is described as follows: SPR, 256 to 8 nM in 2-fold steps.

In the case of “tetrameric FcγRIIIA (from UniProt P08637 17-208) (receptor)”, the KD1 is 29.9 nM in assay [1] and 55.2 nM in assay [2]. The KD2 in assay [1] came out at 2.3 nM; in assay [2], 2.29 nM.

Values taken from patent US20240150494A1.
